Reference: patent publication US20220348651A1, “ENTPD2 ANTIBODIES, COMBINATION THERAPIES, AND METHODS OF USING THE ANTIBODIES AND COMBINATION THERAPIES” (Novartis AG, priority 2019, published 2022)

Columns and labels:
RKO cells = target: T1, RKO cells (Homo sapiens, UniProt Q9Y5L3); test: FACS binding to RKO cells with endogenous ENTPD2; conditions: read-out: Apparent FACS Affinity
T1 construct: colorectal cancer cells with endogenous ENTPD2 expression; host or cells: RKO
T1 sequence (Q9Y5L3 1-495): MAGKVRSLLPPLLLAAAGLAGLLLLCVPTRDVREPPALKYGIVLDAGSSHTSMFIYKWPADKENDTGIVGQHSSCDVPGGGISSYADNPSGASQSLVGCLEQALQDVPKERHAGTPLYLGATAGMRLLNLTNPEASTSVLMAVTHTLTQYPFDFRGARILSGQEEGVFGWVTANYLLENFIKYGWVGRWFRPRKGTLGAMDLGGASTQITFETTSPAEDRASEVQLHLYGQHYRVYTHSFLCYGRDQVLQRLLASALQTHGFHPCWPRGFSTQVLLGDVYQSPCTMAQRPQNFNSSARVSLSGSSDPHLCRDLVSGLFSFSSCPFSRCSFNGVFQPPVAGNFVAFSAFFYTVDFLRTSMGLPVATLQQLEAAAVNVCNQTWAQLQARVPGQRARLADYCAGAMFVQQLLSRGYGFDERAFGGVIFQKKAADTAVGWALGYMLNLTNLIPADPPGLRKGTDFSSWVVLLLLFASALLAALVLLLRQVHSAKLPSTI
Procedure: FACS screening: Specific binding of candidate antibodies to endogenously expressed ENTPD2 was assessed by flow cytometry. Cells were rinsed thoroughly with 1×PBS and treated with Accutase (Millipore #SCR005) to lift from growth plates and resuspended at approximately 1×10^5 cells/90 μL in 1× FACS buffer (2% FBS+0.1% NaN3 in PBS). In a 96-well U-bottom plate, 10 μL of 10× antibody solution in FACS buffer was pre-seeded and 90 μL of cell suspension was added. Cell were incubated for 30 minutes at 4° C., washed 1× with cold PBS and resuspended in 100 μL of 1:500 secondary antibody 1× FACS buffer (Allophycocyanin conjugated F(ab′)2 goat anti-human IgG, Fcγ specific; Jackson Immunoresearch, Cat#109-136-098). After additional incubation for 15 min at 4° C., cells were washed twice with PBS and resuspended in 100 μL of 1×FACS buffer with 4 μg/mL propidium iodide (Life Technologies, Cat#P3566). Geometric mean fluorescence intensity was calculated on live single cells using FlowJo software.

human ENTPD2 = target: T2, human ENTPD2 (Homo sapiens, UniProt Q9Y5L3); test: Biacore (SPR) affinity to human ENTPD2 ECD; format: binding; conditions: 25° C.
T2 construct: residues 29-462 of human or cyno ENTPD2 were cloned into expression vector; GP67 signal peptide (N); made in house; host or cells: High Five (Trichoplusia ni) insect cells, baculovirus
T2 sequence (Q9Y5L3 29-462): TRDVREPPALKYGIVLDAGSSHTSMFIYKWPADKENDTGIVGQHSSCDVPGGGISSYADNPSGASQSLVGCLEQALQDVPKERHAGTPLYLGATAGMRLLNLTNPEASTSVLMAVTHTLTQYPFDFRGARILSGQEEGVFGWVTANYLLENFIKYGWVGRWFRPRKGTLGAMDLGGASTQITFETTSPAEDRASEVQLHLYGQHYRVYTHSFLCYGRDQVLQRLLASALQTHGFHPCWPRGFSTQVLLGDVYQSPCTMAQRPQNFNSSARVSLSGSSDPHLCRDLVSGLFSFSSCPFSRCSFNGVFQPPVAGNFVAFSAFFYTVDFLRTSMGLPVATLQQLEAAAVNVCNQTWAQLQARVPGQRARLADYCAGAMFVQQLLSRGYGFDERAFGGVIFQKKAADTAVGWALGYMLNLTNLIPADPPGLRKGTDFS
Procedure: Biacore Screening: Affinity was measured by determining the kinetic rate constants using surface plasmon resonance (SPR) on a Biacore T200 or T100 with the T200 sensitivity upgrade instrument (Biacore, GE Healthcare). Antibodies were captured on CM5 sensor chips (Biacore, GE Healthcare) prepared with a mouse anti-human IgG Fc antibody (ThermoFisher catalogue #05-4200) amine coupled to the surface. […] ENTPD2 analytes were allowed to associate for 180 s and dissociate for up to 1800 s depending on the off-rate of the antibody at a flow rate of 30 μL/min. The running buffer was PBS pH 7.2 (prepared from a Corning 10X stock, cat#46-013-CM)+0.05% Tween 20. Regeneration was accomplished with 30 s injections of 3 or 4 M MgCl2 to remove all the captured antibody and remaining complex from the surface, after which fresh antibody was captured. The raw data were analyzed using Biacore T200 Evaluation Software version 1.0 and fit to a 1:1 binding model, with all parameters set to fit globally except for RI, which was set to fit locally.

EC50 (RKO cells): 0.4 nM | Kd (human ENTPD2): 0.9 nM | ka (human ENTPD2): 210000 M⁻¹ s⁻¹ | kd (human ENTPD2): 0.00019 s⁻¹
B1: mAb7: humanized anti-human ENTPD2 antibody from mAb17; VH SEQ ID NO: 25, VL SEQ ID NO: 78 (antibody, V domains shown)
VH: QVQLVQSGAEVVKPGASVKISCKASGYTFTDYNMDWVKQAPGQRLEWIGDINPKYDISTYNQQFKGKATITVDKSASTAYMELSSLRSEDTAVYYCARRGFFLYYGINYYYFDVWGQGTLVTVSS
VL: EIVLTQSPATLSASPGEEITLSCSASSSVSYIHWYQQKPGQAPRLLIYSTSNLASGIPARFSGSGSGTFYTLTISSVEPEDAAVYYCHQWSSYPWTFGGGTKLEIK
